According to publication PMC9984488:

Tests used:
[1] = target: 14-3-3τ (UniProt P27348); test: GST pull-down from co-transfected cells; details: reference: GST-HIP-55 wild type; sites S269,T291
[2] = target: MAP4K1 (UniProt Q92918); test: GST pull-down from transfected cells; details: reference: HIP-55 wild type; sites S269,T291

Row | binding against the reference [1] | binding against the reference [2] | Substance
1 | lost | – | HIP-55 (from UniProt Q9UJU6) GST-HIP-55 S269A/T291A (HIP-55AA)
2 | – | weaker | HIP-55 (from UniProt Q9UJU6) HIP-55 S269A/T291A (HIP-55AA)
